# Assay results reported in article PMC12102336.
# B1: 14mer ITC duplex (dsDNA)
# DNA 1: CGCTAATTAGCTCG
# DNA 2: CGAGCTAATTAGCG
# B2: P3 EMSA probe (dsDNA)
# DNA 1: TGTGTCTTAATTAGATTAACGCACTTGATAGTGCGGGCGTGGCT
# DNA 2: AGCCACGCCCGCACTATCAAGTGCGTTAATCTAATTAAGACACA
# Columns and labels:
# ALX4 R218Q [1] = biological target: T1, ALX4 R218Q (Mus musculus (region identical to human), UniProt Q9H161 209-274, R218Q); assay: ITC
# ALX4 R218Q [2] = biological target: T1, ALX4 R218Q; assay: EMSA
# ALX4 R216G = ALX4 R216G (Mus musculus (region identical to human), UniProt Q9H161 209-274, R216G); assay: EMSA
# ALX4 169-303;ALX4 R272P = ALX4 169-303;ALX4 R272P (Mus musculus (region identical to …, UniProt Q9H161;Q9H161 169-303;209-274, |R272P)); assay: EMSA
# ALX4 169-303;ALX4 K211E = ALX4 169-303;ALX4 K211E (Mus musculus (region identical to …, UniProt Q9H161;Q9H161 169-303;209-274, |K211E)); assay: EMSA
# ALX4 Q225E = ALX4 Q225E (Mus musculus (region identical to human), UniProt Q9H161 209-274, Q225E); assay: EMSA
# ALX4 R272P = ALX4 R272P (Mus musculus (region identical to human), UniProt Q9H161 209-274, R272P); assay: EMSA
# ALX4 K211E = ALX4 K211E (Mus musculus (region identical to human), UniProt Q9H161 209-274, K211E); assay: EMSA
# ALX4 R215A = ALX4 R215A (Mus musculus (region identical to human), UniProt Q9H161 209-274, R215A); assay: EMSA
# ALX4 R215A;R216A = ALX4 R215A;R216A (Mus musculus (region identical to human), UniProt Q9H161 209-274, R215A;R216A); assay: EMSA
# ALX4 R216A = ALX4 R216A (Mus musculus (region identical to human), UniProt Q9H161 209-274, R216A); assay: EMSA
# [3] = biological target: ALX4 169-303;ALX4 HD (209-274) (Mus musculus (region identical to …, UniProt Q9H161;Q9H161 169-303;209-274, |)); assay: EMSA
# ALX4 169-303;ALX4 HD (209-274) (Mus musculus, sequence (Q9H161 169-303, chain 1 of 2): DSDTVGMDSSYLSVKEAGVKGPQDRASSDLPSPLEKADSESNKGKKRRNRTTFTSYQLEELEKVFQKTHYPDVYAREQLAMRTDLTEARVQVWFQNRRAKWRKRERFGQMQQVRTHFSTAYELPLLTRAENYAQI
# ALX4 169-303;ALX4 HD (209-274) (Mus musculus, sequence (Q9H161 209-274, chain 2 of 2): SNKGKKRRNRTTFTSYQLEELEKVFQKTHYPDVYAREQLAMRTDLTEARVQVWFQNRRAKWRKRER
# T1 sequence (Q9H161 209-274 R218Q): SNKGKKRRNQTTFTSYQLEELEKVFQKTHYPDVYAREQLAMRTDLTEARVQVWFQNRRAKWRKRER
# ALX4 R216A, sequence (Q9H161 209-274 R216A): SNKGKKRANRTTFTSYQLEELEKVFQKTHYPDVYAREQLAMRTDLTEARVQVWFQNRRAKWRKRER
# ALX4 R272P, sequence (Q9H161 209-274 R272P): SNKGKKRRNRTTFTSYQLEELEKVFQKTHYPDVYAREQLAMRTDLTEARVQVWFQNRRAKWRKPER
# ALX4 169-303;ALX4 K211E (Mus musculus, sequence (Q9H161 169-303, stated change not applied, chain 1 of 2): as the sequence (Q9H161 169-303, chain 1 of 2) above
# ALX4 169-303;ALX4 K211E (Mus musculus, sequence (Q9H161 209-274 K211E, chain 2 of 2): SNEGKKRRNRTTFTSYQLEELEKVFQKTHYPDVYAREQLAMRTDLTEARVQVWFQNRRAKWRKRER
# ALX4 169-303;ALX4 R272P (Mus musculus, sequence (Q9H161 169-303, stated change not applied, chain 1 of 2): as the sequence (Q9H161 169-303, chain 1 of 2) above
# ALX4 169-303;ALX4 R272P (Mus musculus, sequence (Q9H161 209-274 R272P, chain 2 of 2): as the sequence (Q9H161 209-274 R272P) above
# ALX4 R215A;R216A, sequence (Q9H161 209-274 R215A/R216A): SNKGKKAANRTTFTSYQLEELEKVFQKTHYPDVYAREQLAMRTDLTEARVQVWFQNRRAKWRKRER
# ALX4 Q225E, sequence (Q9H161 209-274 Q225E): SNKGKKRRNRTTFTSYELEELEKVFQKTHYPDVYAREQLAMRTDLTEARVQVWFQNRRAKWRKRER
# ALX4 K211E, sequence (Q9H161 209-274 K211E): as the sequence (Q9H161 209-274 K211E, chain 2 of 2) above
# ALX4 R215A, sequence (Q9H161 209-274 R215A): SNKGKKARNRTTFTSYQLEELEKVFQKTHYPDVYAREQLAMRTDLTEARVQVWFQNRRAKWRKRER
# ALX4 R216G, sequence (Q9H161 209-274 R216G): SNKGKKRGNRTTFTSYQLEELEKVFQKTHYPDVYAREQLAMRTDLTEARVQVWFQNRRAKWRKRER
Binder,binding result (ALX4 R218Q [1]),binding result (ALX4 R218Q [2]),binding signal (ALX4 R216G),binding result (ALX4 169-303;ALX4 R272P),binding result (ALX4 169-303;ALX4 K211E),binding signal (ALX4 Q225E),binding result (ALX4 R272P),binding result (ALX4 K211E),binding signal (ALX4 R215A),binding signal (ALX4 R215A;R216A),binding signal (ALX4 R216A),binding result [3]
B1,no binding,,,,,,,,,,,
B2,,no binding,~10 fold reduction of Tau vs WT,binds,binds,~2 fold reduction of Tau vs WT,binds,binds,~5 fold reduction of Tau vs WT,~20 fold reduction of Tau vs WT,~10 fold reduction of Tau vs WT,binds
